Laboratory results published in patent US20220298218A1 (ANTAG THERAPEUTICS, published 2022).
*1 amine or outer side, *2 acyl side, *3 side chain or, on linkers, in order; H or OH if unused. Where no end group is shown, it is not given here. Side-chain parts run from the residue outwards. The star is where a group is joined. C18 diacid = O=C(O)CCCCCCCCCCCCCCCCC(=O)*; γGlu = O=C(O)[C@H](CCC(=O)[*:2])N[*:1]; PEG = not defined here; AEEA = NCCOCCOCC(=O)O

B1: AT591 (peptide)
peptide: EGTFISDYSIAMDKIK([AEEA-AEEA-γGlu-C18 diacid])QQDFVNWLLAGGPSSGAPPPS-NH2
modifications: N-terminus assumed
SMILES: CC[C@H](C)[C@H](NC(=O)[C@H](CO)NC(=O)[C@H](Cc1ccc(O)cc1)NC(=O)[C@H](CC(=O)O)NC(=O)[C@H](CO)NC(=O)[C@@H](NC(=O)[C@H](Cc1ccccc1)NC(=O)[C@@H](NC(=O)CNC(=O)[C@@H](N)CCC(=O)O)[C@@H](C)O)[C@@H](C)CC)C(=O)N[C@@H](C)C(=O)N[C@@H](CCSC)C(=O)N[C@@H](CC(=O)O)C(=O)N[C@@H](CCCCN)C(=O)N[C@H](C(=O)N[C@@H](CCCCNC(=O)COCCOCCNC(=O)COCCOCCNC(=O)CC[C@H](NC(=O)CCCCCCCCCCCCCCCCC(=O)O)C(=O)O)C(=O)N[C@@H](CCC(N)=O)C(=O)N[C@@H](CCC(N)=O)C(=O)N[C@@H](CC(=O)O)C(=O)N[C@@H](Cc1ccccc1)C(=O)N[C@H](C(=O)N[C@@H](CC(N)=O)C(=O)N[C@@H](Cc1c[nH]c2ccccc12)C(=O)N[C@@H](CC(C)C)C(=O)N[C@@H](CC(C)C)C(=O)N[C@@H](C)C(=O)NCC(=O)NCC(=O)N1CCC[C@H]1C(=O)N[C@@H](CO)C(=O)N[C@@H](CO)C(=O)NCC(=O)N[C@@H](C)C(=O)N1CCC[C@H]1C(=O)N1CCC[C@H]1C(=O)N1CCC[C@H]1C(=O)N[C@@H](CO)C(N)=O)C(C)C)[C@@H](C)CC
B2: AT592 (peptide)
peptide: EGTFISDYSIAMDKIK([AEEA-AEEA-γGlu-C18 diacid])QQDFVNWLLAGGPSSGAPPPS-OH
modifications: N-terminus assumed
SMILES: CC[C@H](C)[C@H](NC(=O)[C@H](CO)NC(=O)[C@H](Cc1ccc(O)cc1)NC(=O)[C@H](CC(=O)O)NC(=O)[C@H](CO)NC(=O)[C@@H](NC(=O)[C@H](Cc1ccccc1)NC(=O)[C@@H](NC(=O)CNC(=O)[C@@H](N)CCC(=O)O)[C@@H](C)O)[C@@H](C)CC)C(=O)N[C@@H](C)C(=O)N[C@@H](CCSC)C(=O)N[C@@H](CC(=O)O)C(=O)N[C@@H](CCCCN)C(=O)N[C@H](C(=O)N[C@@H](CCCCNC(=O)COCCOCCNC(=O)COCCOCCNC(=O)CC[C@H](NC(=O)CCCCCCCCCCCCCCCCC(=O)O)C(=O)O)C(=O)N[C@@H](CCC(N)=O)C(=O)N[C@@H](CCC(N)=O)C(=O)N[C@@H](CC(=O)O)C(=O)N[C@@H](Cc1ccccc1)C(=O)N[C@H](C(=O)N[C@@H](CC(N)=O)C(=O)N[C@@H](Cc1c[nH]c2ccccc12)C(=O)N[C@@H](CC(C)C)C(=O)N[C@@H](CC(C)C)C(=O)N[C@@H](C)C(=O)NCC(=O)NCC(=O)N1CCC[C@H]1C(=O)N[C@@H](CO)C(=O)N[C@@H](CO)C(=O)NCC(=O)N[C@@H](C)C(=O)N1CCC[C@H]1C(=O)N1CCC[C@H]1C(=O)N1CCC[C@H]1C(=O)N[C@@H](CO)C(=O)O)C(C)C)[C@@H](C)CC
B3: AT593 (peptide)
peptide: EGTFISDYSIAMDKIK([AEEA-AEEA-γGlu-C18 diacid])QQDFVNWLLAQPSSGAPPPS-NH2
modifications: N-terminus assumed
SMILES: CC[C@H](C)[C@H](NC(=O)[C@H](CO)NC(=O)[C@H](Cc1ccc(O)cc1)NC(=O)[C@H](CC(=O)O)NC(=O)[C@H](CO)NC(=O)[C@@H](NC(=O)[C@H](Cc1ccccc1)NC(=O)[C@@H](NC(=O)CNC(=O)[C@@H](N)CCC(=O)O)[C@@H](C)O)[C@@H](C)CC)C(=O)N[C@@H](C)C(=O)N[C@@H](CCSC)C(=O)N[C@@H](CC(=O)O)C(=O)N[C@@H](CCCCN)C(=O)N[C@H](C(=O)N[C@@H](CCCCNC(=O)COCCOCCNC(=O)COCCOCCNC(=O)CC[C@H](NC(=O)CCCCCCCCCCCCCCCCC(=O)O)C(=O)O)C(=O)N[C@@H](CCC(N)=O)C(=O)N[C@@H](CCC(N)=O)C(=O)N[C@@H](CC(=O)O)C(=O)N[C@@H](Cc1ccccc1)C(=O)N[C@H](C(=O)N[C@@H](CC(N)=O)C(=O)N[C@@H](Cc1c[nH]c2ccccc12)C(=O)N[C@@H](CC(C)C)C(=O)N[C@@H](CC(C)C)C(=O)N[C@@H](C)C(=O)N[C@@H](CCC(N)=O)C(=O)N1CCC[C@H]1C(=O)N[C@@H](CO)C(=O)N[C@@H](CO)C(=O)NCC(=O)N[C@@H](C)C(=O)N1CCC[C@H]1C(=O)N1CCC[C@H]1C(=O)N1CCC[C@H]1C(=O)N[C@@H](CO)C(N)=O)C(C)C)[C@@H](C)CC
B4: AT594 (peptide)
peptide: EGTFISDYSIAMDKIHQK([AEEA-AEEA-γGlu-C18 diacid])DFVNWLLAQKPSSGAPPPS-NH2
modifications: N-terminus assumed
SMILES: CC[C@H](C)[C@H](NC(=O)[C@H](CO)NC(=O)[C@H](Cc1ccc(O)cc1)NC(=O)[C@H](CC(=O)O)NC(=O)[C@H](CO)NC(=O)[C@@H](NC(=O)[C@H](Cc1ccccc1)NC(=O)[C@@H](NC(=O)CNC(=O)[C@@H](N)CCC(=O)O)[C@@H](C)O)[C@@H](C)CC)C(=O)N[C@@H](C)C(=O)N[C@@H](CCSC)C(=O)N[C@@H](CC(=O)O)C(=O)N[C@@H](CCCCN)C(=O)N[C@H](C(=O)N[C@@H](Cc1c[nH]cn1)C(=O)N[C@@H](CCC(N)=O)C(=O)N[C@@H](CCCCNC(=O)COCCOCCNC(=O)COCCOCCNC(=O)CC[C@H](NC(=O)CCCCCCCCCCCCCCCCC(=O)O)C(=O)O)C(=O)N[C@@H](CC(=O)O)C(=O)N[C@@H](Cc1ccccc1)C(=O)N[C@H](C(=O)N[C@@H](CC(N)=O)C(=O)N[C@@H](Cc1c[nH]c2ccccc12)C(=O)N[C@@H](CC(C)C)C(=O)N[C@@H](CC(C)C)C(=O)N[C@@H](C)C(=O)N[C@@H](CCC(N)=O)C(=O)N[C@@H](CCCCN)C(=O)N1CCC[C@H]1C(=O)N[C@@H](CO)C(=O)N[C@@H](CO)C(=O)NCC(=O)N[C@@H](C)C(=O)N1CCC[C@H]1C(=O)N1CCC[C@H]1C(=O)N1CCC[C@H]1C(=O)N[C@@H](CO)C(N)=O)C(C)C)[C@@H](C)CC
B5: AT597 (peptide)
peptide: TFISDYK([PEG-PEG-γGlu-C18 diacid])IAMDKIHQQDFVNWLLAQKPSSGAPPPS-NH2
modifications: reading uncertain; also: 2xPEG: PEG unit not given here
B6: AT602 (peptide)
peptide: TFISDYK([PEG-PEG-γGlu-C18 diacid])IAMDKIHQQDFVNWLLAGGPSSGAPPPS
modifications: not fully specified (C-terminus); reading uncertain

Each binder was assayed against T1, human GIP receptor (human, UniProt P48546 22-466) (assay: cell-based or functional assay).
T1 sequence (looked up): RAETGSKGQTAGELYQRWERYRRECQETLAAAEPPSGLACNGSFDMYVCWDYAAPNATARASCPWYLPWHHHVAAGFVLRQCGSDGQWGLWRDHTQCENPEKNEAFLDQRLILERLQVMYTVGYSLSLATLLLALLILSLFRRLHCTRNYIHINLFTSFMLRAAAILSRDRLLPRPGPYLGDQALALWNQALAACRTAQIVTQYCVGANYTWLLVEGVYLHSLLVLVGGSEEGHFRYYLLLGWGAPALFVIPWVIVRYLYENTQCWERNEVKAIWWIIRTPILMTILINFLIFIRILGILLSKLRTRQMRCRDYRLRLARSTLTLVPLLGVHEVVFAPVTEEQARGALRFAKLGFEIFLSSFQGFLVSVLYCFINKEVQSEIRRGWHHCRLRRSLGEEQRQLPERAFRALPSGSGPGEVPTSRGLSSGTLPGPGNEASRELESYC

Row | Binder | cAMP agonism % Emax [%] | cAMP antagonism [nM] | cAMP antagonism % inhib [%] | cAMP antagonism pIC50
1 | B1 | 0 | 21.5 | 92 | 7.7
2 | B2 | 0 | 6.31 | 88 | 8.2
3 | B3 | 0 | 63.1 | 86 | 7.2
4 | B4 | 0 | 79.4 | 80 | 7.1
5 | B5 | 0 | 79.4 | 81 | 7.1
6 | B6 | 0 | 35.5 | 100 | 7.5
